Data from PMC4579020, “Reassembly and co-crystallization of a family 9 processive endoglucanase from its component parts: structural and functional significance of the intermodular linker” (PeerJ, 2015).

Key:
[1] = molecular target: T1, CBM3c module of Cel9I with its adjacent N-terminal linker, C-terminally His-tagged (Clostridium thermocellum, UniProt Q02934 54-516); assay: ITC; VP-ITC, 298 K; about 300 µM CBM3c injected into 65 µM GH9; 50 mM Tris-HCl pH 7.5, 150 mM NaCl, 0.05% sodium azide; one binding site model; CBM3c concentrations corrected to give a stoichiometry of one; two titrations; conditions: both partners purified
T1 construct: Cloning is described in Burstein et al., 2009 and Gilad et al., 2003; also called CBM3cL; CBM3c with linker; source: E. coli BL21(DE3)RIL, purified (Ni-IDA); not shown: His tag, C-terminal, kept
T1 sequence: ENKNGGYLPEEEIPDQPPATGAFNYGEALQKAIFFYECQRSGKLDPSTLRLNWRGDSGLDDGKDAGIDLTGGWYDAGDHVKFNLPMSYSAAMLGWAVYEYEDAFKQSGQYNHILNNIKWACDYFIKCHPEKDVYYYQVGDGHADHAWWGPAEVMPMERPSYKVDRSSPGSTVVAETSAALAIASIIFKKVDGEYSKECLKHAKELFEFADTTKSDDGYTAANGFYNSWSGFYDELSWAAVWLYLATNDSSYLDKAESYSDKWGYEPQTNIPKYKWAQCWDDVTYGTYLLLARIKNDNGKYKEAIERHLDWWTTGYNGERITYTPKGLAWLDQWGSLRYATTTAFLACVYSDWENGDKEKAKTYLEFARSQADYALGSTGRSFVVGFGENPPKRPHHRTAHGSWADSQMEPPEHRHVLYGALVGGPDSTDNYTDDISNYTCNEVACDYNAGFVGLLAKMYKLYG

[2] = molecular target: T2, GH9 catalytic module of Cel9I from Clostridium thermocellum, untagged (Clostridium thermocellum); assay: as above; conditions: both partners purified
T2 chain: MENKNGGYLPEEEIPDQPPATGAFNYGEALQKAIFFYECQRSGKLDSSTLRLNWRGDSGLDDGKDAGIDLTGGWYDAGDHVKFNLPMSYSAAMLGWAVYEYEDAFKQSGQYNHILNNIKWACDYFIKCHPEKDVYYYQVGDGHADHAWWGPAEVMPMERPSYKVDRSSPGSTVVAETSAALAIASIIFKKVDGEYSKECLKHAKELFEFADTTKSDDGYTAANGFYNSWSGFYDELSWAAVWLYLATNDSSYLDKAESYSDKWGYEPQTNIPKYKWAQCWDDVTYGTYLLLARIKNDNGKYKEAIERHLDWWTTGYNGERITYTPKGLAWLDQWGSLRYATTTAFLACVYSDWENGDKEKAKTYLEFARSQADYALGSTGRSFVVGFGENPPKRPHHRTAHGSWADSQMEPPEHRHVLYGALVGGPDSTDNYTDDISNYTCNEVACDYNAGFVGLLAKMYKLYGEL

[3] = molecular target: GH9 catalytic module of Cel9I from Clostridium thermocellum, N-terminally His-tagged (Clostridium thermocellum)

B1: GH9 catalytic module of Cel9I from Clostridium thermocellum, untagged (domain or fragment)
chain: MENKNGGYLPEEEIPDQPPATGAFNYGEALQKAIFFYECQRSGKLDSSTLRLNWRGDSGLDDGKDAGIDLTGGWYDAGDHVKFNLPMSYSAAMLGWAVYEYEDAFKQSGQYNHILNNIKWACDYFIKCHPEKDVYYYQVGDGHADHAWWGPAEVMPMERPSYKVDRSSPGSTVVAETSAALAIASIIFKKVDGEYSKECLKHAKELFEFADTTKSDDGYTAANGFYNSWSGFYDELSWAAVWLYLATNDSSYLDKAESYSDKWGYEPQTNIPKYKWAQCWDDVTYGTYLLLARIKNDNGKYKEAIERHLDWWTTGYNGERITYTPKGLAWLDQWGSLRYATTTAFLACVYSDWENGDKEKAKTYLEFARSQADYALGSTGRSFVVGFGENPPKRPHHRTAHGSWADSQMEPPEHRHVLYGALVGGPDSTDNYTDDISNYTCNEVACDYNAGFVGLLAKMYKLYGEL
modifications: one bound Ca2+ in the crystal. Limits are the crystallized untagged GH9 entity (466 aa, about 52 kDa as on SDS-PAGE). Paper residues 1-446 are entity 21-466 (offset +20, from Tyr440, Gly444 and end …)
In the case of B1, the Kd [1] is reported as 1300 to 2000 nM.

B2: CBM3c module of Cel9I without the N-terminal linker, C-terminally His-tagged (domain or fragment)
chain: EVPEDEIFVEAGVNASGNNFIEIKAIVNNKSGWPARVCENLSFRYFINIEEIVNAGKSASDLQVSSSYNQGAKLSDVKHYKDNIYYVEVDLSGTKIYPGGQSAYKKEVQFRISAPEGTVFNPENDYSYQGLSAGTVVKSEYIPVYDAGVLVFGREP
modifications: one bound Ca2+ in the crystal. Limits are the crystallized untagged GH9 entity (466 aa, about 52 kDa as on SDS-PAGE). Paper residues 1-446 are entity 21-466 (offset +20, from Tyr440, Gly444 and end …)
With B2 the Kd [2] was 290 to 430 nM and the CMCase activity (reducing sugar released in 10 min, 333 K, pH 6.0) of 70 pmol His-tagged GH9 mixed with increasing amounts of CBM3cNL, relative to intact Cel9I set as 100% (% of intact Cel9I activity) [3] was 10.
